Positions count from the first letter of the chain named. Several values for one entry are separate records, joined by “and”; a condition that tells them apart may be missing. Identical values can stand only once.
T1: CD73 on the surface of human tumor cells (human, UniProt P21589 27-549)
T1 chain: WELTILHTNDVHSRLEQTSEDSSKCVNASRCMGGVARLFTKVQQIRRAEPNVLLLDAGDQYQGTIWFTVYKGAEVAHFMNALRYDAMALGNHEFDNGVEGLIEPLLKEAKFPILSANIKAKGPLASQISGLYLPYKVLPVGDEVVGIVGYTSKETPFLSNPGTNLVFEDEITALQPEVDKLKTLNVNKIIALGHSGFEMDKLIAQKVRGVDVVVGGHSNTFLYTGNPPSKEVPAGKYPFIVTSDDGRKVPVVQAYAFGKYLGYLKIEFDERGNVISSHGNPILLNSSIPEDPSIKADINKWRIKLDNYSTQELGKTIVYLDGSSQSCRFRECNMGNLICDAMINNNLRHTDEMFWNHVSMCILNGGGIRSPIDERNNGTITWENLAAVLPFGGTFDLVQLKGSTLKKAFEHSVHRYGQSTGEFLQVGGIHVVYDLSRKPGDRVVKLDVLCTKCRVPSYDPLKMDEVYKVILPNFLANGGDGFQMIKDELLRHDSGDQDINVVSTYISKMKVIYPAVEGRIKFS

T2: Carbon-terminal polyhistidine-labeled recombinant cynomolgus monkey CD73 enzyme (cynomolgus monkey, UniProt A0A2K5V5U7 1-547)
T2 chain: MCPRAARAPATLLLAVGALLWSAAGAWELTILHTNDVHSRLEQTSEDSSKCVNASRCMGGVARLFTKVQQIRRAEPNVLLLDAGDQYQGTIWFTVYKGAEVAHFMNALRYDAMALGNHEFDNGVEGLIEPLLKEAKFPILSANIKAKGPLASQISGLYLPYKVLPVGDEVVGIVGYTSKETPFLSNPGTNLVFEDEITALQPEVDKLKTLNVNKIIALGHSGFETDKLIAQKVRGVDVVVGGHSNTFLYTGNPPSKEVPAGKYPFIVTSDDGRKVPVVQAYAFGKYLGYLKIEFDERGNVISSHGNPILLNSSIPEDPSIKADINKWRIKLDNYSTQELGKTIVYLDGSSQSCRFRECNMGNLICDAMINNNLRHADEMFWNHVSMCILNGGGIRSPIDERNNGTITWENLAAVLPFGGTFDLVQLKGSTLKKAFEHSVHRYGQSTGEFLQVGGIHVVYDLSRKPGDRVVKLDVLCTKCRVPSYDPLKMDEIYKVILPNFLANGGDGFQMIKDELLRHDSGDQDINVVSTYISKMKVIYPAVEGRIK

T3: extracellular domain of human CD73 protein (CD73-ECD), C-terminus polyhistidine-tagged (UniProt P21589 27-547)
T3 chain: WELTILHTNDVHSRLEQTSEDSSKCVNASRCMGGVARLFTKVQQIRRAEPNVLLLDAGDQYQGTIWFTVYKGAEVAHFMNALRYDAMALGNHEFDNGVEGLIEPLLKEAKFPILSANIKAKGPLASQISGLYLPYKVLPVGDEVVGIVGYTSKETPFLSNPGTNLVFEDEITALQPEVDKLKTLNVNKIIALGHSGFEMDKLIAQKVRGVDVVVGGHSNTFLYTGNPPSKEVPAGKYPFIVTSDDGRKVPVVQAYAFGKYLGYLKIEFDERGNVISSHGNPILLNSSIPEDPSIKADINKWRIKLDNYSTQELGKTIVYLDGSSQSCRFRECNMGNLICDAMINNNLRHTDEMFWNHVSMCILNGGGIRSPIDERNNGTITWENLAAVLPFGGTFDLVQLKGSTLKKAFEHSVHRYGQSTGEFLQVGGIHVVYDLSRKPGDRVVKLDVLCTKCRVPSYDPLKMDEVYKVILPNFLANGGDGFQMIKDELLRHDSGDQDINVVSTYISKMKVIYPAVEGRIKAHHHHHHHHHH

B1: mAb002c-VH-QG/VK-SG (antibody, V domains shown)
VH: QVQLQQPGAELVKPGASVRLSCKASGYTLTSYWMHWVKKRPGQGLEWIGEINPSQGRSNYNEKFKSKATLTVDRSSSTVYMQLGSLTSEDSAVYYCARRGVSGNYFDYWGQGTTLTVSS
VL: DIKMTQSPSSMYASLGERVTMTCKASQDINTYLSWFQQKPGKSPKTLIYRSNILVSGVPSRFSGSRSGQDYYLTITSLEYEDMGIYYCLQYDEFPYTFGGGTKLELK
B2: Hu001c-31 (antibody, V domains shown)
VH: QVQLVQSGAEVKKPGASVKVSCKASGYTFTNYYIYWVRQAPGQRLEWIGWIYPGNLNIKYNEKFKGRSTLTADKSASTAYMELSSLRSEDTAVYYCARDDNYAWFAYWGQGTLVTVSS
VL: DIQMTQSPSSLSASVGDRVTITCKASQDVSTAVAWYQQKPGKAPKLLIYWTNTRHTGVPSRFSGSGSGTDHTLTISSLQPEDFATYYCQQHYSTPFTFGQGTKLEIK
B3: Hu001c-32 (antibody, V domains shown)
VH: B2 VH with R38K, A40R
VL: B2 VL
B4: Hu001c-23 (antibody, V domains shown)
VH: B2 VH with R38K, A40R, R44G, S68V, L70I
VL: B2 VL
B5: Hu001c-30 (antibody, V domains shown)
VH: B2 VH with R38K, A40R
VL: B2 VL with H71F
B6: Hu001c-14 (antibody, V domains shown)
VH: B2 VH with A24T, I48M, S68V, L70I, K74T
VL: B2 VL
B7: Hu001c-25 (antibody, V domains shown)
VH: B2 VH with S68V, L70I
VL: B2 VL with A43S
B8: Hu001c-22 (antibody, V domains shown)
VH: B2 VH with R38K, A40R, S68V, L70I
VL: B2 VL
B9: Hu001c-21 (antibody, V domains shown)
VH: B2 VH with S68V, L70I
VL: B2 VL
B10: Hu001c-24 (antibody, V domains shown)
VH: B2 VH with A24T, R38K, A40R, R44G, S68V, L70I
VL: B2 VL
B11: Hu001c-28 (antibody, V domains shown)
VH: B2 VH with A24T, R38K, A40R, R44G, S68V, L70I
VL: B2 VL with A43S
B12: mAb002c-VH-QG (antibody, V domains shown)
VH: B1 VH
VL: B1 VL with S56D
B13: mAb002c-VH-NA (antibody, V domains shown)
VH: B1 VH with Q55N, G56A
VL: B1 VL with S56D
B14: mAb002c-VK-SG (antibody, V domains shown)
VH: B1 VH with Q55N
VL: B1 VL

Target: T1, CD73 on the surface of human tumor cells
Assay: FACS; MDA-MB-231 cells, left table

B1 gave an EC50 of 0.557 nM.

Target: T1, CD73 on the surface of human tumor cells
Assay: FACS; NCI-H1299 cells, right table

B2 and B3 are within 1.5-fold of each other in EC50: 1.24 nM for the first, 1.62 nM for the second.

B4 and B5 are within 1.5-fold of each other in EC50: 1.48 nM for the first, 1.61 nM for the second.

Work on B6 yielded an EC50 of 1.16 nM.

Target: T1, CD73 on the surface of human tumor cells
Assay: FACS; NCI-H1299 cells, left table

Work on B1 yielded an EC50 of 0.73 nM.

Target: T1, CD73 on the surface of human tumor cells
Assay: FACS; MDA-MB-231 cells, right table

B1 showed an EC50 of 0.557 nM.

Target: T2, Carbon-terminal polyhistidine-labeled …
Assay: enzyme inhibition; left table

First: B1
Second: B7
The IC50 of the first is 7.7-fold lower: 0.044 nM for the first, 0.34 nM for the second. The first is the more potent here.

First: B8
Second: B9
The IC50 of the first is 4.6-fold lower: 0.08 nM for the first, 0.37 nM for the second.

B10 and B11 are within 1.5-fold of each other in IC50: 0.04 nM for the first, 0.03 nM for the second.

First: B4
Second: B6
The IC50 of the first is 1.6-fold lower: 0.07 nM for the first, 0.11 nM for the second.

Target: T3, extracellular domain of human CD73 …
Assay: ELISA

In the case of B1, the EC50 is reported as 0.096 nM and 0.103 nM.

Going from B2 to B7, the EC50 falls from 0.109 nM to 0.033 nM (3.3-fold). The second is the more potent here.

First: B8
Second: B9
The EC50 of the first is 1.6-fold higher: 0.032 nM for the first, 0.02 nM for the second.

B10 and B11 are within 1.5-fold of each other in EC50: 0.026 nM for the first, 0.037 nM for the second.

Going from B3 to B4, the EC50 falls from 0.107 nM to 0.033 nM (3.2-fold). The second is the more potent here.

B5 and B6 are within 1.5-fold of each other in EC50: 0.139 nM for the first, 0.108 nM for the second.

Target: T1, CD73 on the surface of human tumor cells
Assay: FACS; NCI-H1299 cells, left table
Remark: another data set of the same source

B8 and B10 are within 1.5-fold of each other in EC50: 1.42 nM for the first, 1.28 nM for the second.

B11 and B4 are within 1.5-fold of each other in EC50: 1.41 nM for the first, 1.3 nM for the second.

With B6 the EC50 was 1.33 nM.

Target: T1, CD73 on the surface of human tumor cells
Assay: inhibition of cell-surface CD73 enzyme activity; left panel

Binder B1 has an IC50 of 0.448 nM.

Target: T3, extracellular domain of human CD73 …
Assay: enzyme inhibition; right table

Going from B2 to B10, the IC50 falls from 0.12 nM to 0.03 nM (4-fold). The second is the more potent here.

Compared with B3, B4 is 1.8-fold lower in IC50: 0.07 nM for the first, 0.04 nM for the second.

Compared with B5, B6 is 2.1-fold lower in IC50: 0.128 nM for the first, 0.06 nM for the second.

Target: T1, CD73 on the surface of human tumor cells
Assay: inhibition of cell-surface CD73 enzyme activity; right panel

B1 was tested, and the IC50 was 0.429 nM.

Target: T1, CD73 on the surface of human tumor cells
Assay: FACS; MDA-MB-231 cells, right table
Remark: another data set of the same source

B2 and B3 are within 1.5-fold of each other in EC50: 0.514 nM for the first, 0.608 nM for the second.

B4 and B5 are within 1.5-fold of each other in EC50: 0.593 nM for the first, 0.695 nM for the second.

In the case of B6, the EC50 is reported as 0.626 nM.

Target: T1, CD73 on the surface of human tumor cells
Assay: FACS; MDA-MB-231 cells, left table
Remark: another data set of the same source

B7 and B8 are within 1.5-fold of each other in EC50: 0.435 nM for the first, 0.522 nM for the second.

First: B9
Second: B10
The EC50 of the first is 2.1-fold lower: 0.205 nM for the first, 0.432 nM for the second. The first is the more potent here.

B11 and B4 are within 1.5-fold of each other in EC50: 0.446 nM for the first, 0.4 nM for the second.

Work on B6 yielded an EC50 of 0.449 nM.

Target: T1, CD73 on the surface of human tumor cells
Assay: FACS; NCI-H1299 cells, right table
Remark: another data set of the same source

B1 was tested, and the EC50 was 0.573 nM.

Target: T3, extracellular domain of human CD73 …
Assay: enzyme inhibition; left table

Compared with B7, B8 is 10-fold lower in IC50: 0.3 nM for the first, 0.03 nM for the second.

Compared with B9, B10 is 6-fold lower in IC50: 0.12 nM for the first, 0.02 nM for the second.

B11 and B4 are the same in IC50: 0.03 nM for the first, 0.03 nM for the second.

Work on B6 yielded an IC50 of 0.06 nM.

Target: T3, extracellular domain of human CD73 …
Assay: ELISA
Remark: another data set of the same source

B12 and B13 are within 1.5-fold of each other in EC50: 0.05 nM for the first, 0.051 nM for the second.

B14 showed an EC50 of 0.063 nM.

Target: T2, Carbon-terminal polyhistidine-labeled …
Assay: enzyme inhibition; right table

Going from B1 to B2, the IC50 rises from 0.055 nM to 0.28 nM (5.1-fold).

Going from B10 to B3, the IC50 rises from 0.04 nM to 0.11 nM (2.8-fold).

Going from B4 to B5, the IC50 rises from 0.07 nM to 0.132 nM (1.9-fold).

In the case of B6, the IC50 is reported as 0.1 nM.

Reference: patent US20210024646A1 (published 2021)
